Holding throughout (assay): BLI; OctetRed96; bacterial proteins immobilised on AR2G sensors by amino coupling; laminin-111 as analyte, 1.63 to 100 nM in PBS; 30 °C
The target in experiment [1] is recombinant PA3923 of P. aeruginosa PAO1, 6xHis-tagged (P. aeruginosa PAO1) (UniProt Q9HX90).
Experiment [2] addresses recombinant OprG of P. aeruginosa PAO1, 6xHis-tagged (P. aeruginosa PAO1) (UniProt Q9HWW1).
Experiment [3] addresses T1, Engelbreth-Holm-Swarm murine sarcoma laminin-111 (mouse, UniProt P19137 25-3083; P02469 22-1786; P02468 34-1607).
T1 construct: laminin alpha chain of laminin-111 (laminin subunit alpha-1), mouse; carries LG1-5 at its C-terminal end; laminin beta chain of laminin-111 (laminin subunit beta-1), mouse; laminin gamma chain of laminin-111 (laminin subunit gamma-1), mouse; Heterotrimer alpha/beta/gamma; Labelled with colloidal gold for the TEM experiment; also called L2020; source: bought: Sigma-Aldrich (L2020), …
The conditions noted are these: both partners purified.

By Kd is commonly meant the constant that tells how readily two partners part at equilibrium. Turning to “Engelbreth-Holm-Swarm murine sarcoma laminin-111 (from UniProt P19137 25-3083; P02469 22-1786; P02468 34-1607) (complex)”, the equilibrium dissociation constant (Kd) in experiment [1] stood at 6.9 nM; in experiment [2], 4.7 nM.

B1: recombinant Paf of P. aeruginosa, 6xHis-tagged (natural protein)
chain: EDGKRLRIGITLHPYYSYVSNIVGDKAEVVPLIPAGFNPHAYEPRAEDIKRIGTLDVVVLNGVGHDDFAERMIASSEKPGIPVIEANAKVPLLAATGMAARGAGKVVNPHTFLSISASITQVNTIARELGKLDPANAKAYTRNARAYAKRLRALRADALARLNKAPAADFRVATIHGAYDYLLREFGLEVTAVVEPAHGIEPSPSQLKKTIDQLKALDVKVIFSEIDFPSTYVETIQRESGVKLYSLSHISYGDYSAGKYEEEMARNLDTVVRAIQESGA
For the molecule B1, binding in experiment [3] was put at a Kd of 2.8 nM.

B2: recombinant EstA of P. aeruginosa PAO1, 6xHis-tagged (natural protein)
chain: APSPYSTLVVFGDSLSDAGQFPDPAGPAGSTSRFTNRVGPTYQNGSGEIFGPTAPMLLGNQLGIAPGDLAASTSPVNAQQGIADGNNWAVGGYRTDQIYDSITAANGSLIERDNTLLRSRDGYLVDRARQGLGADPNALYYITGGGNDFLQGRILNDVQAQQAAGRLVDSVQALQQAGARYIVVWLLPDLGLTPATFGGPLQPFASQLSGTFNAELTAQLSQAGANVIPLNIPLLLKEGMANPASFGLAADQNLIGTCFSGNGCTMNPTYGINGSTPDPSKLLFNDSVHPTITGQRLIADYTYSLLSAPWELTLLPEMAHGTLRAYQDELRSQWQADWENWQNVGQWRGFVGGGGQRLDFDSQDSAASGDGNGYNLTLGGSYRIDEAWRAGVAAGFYRQKLEAGAKDSDYRMNSYMASAFVQYQENRWWADAALTGGYLDYDDLKRKFALGGGERSEKGDTNGHLWAFSARLGYDIAQQADSPWHLSPFVSADYARVEVDGYSEKGASATALDYDDQKRSSKRLGAGLQGKYAFGSDTQLFAEYAHEREYEDDTQDLTMSLNSLPGNRFTLEGYTPQDHLNRVSLGFSQKLAPELSLRGGYNWRKGEDDTQQSVSLALSLDF
notes: EstA, autotransporter esterase of P. aeruginosa PAO1; open reading frame amplified from PAO1 genomic DNA and cloned into pET26(b)+; Labelled with 10 nm colloidal gold for TEM; source: E. coli BL21(DE3), purified (Ni-NTA)
B2 showed a Kd in experiment [3] of 1.7 nM.

B3: recombinant OprD of P. aeruginosa PAO1, 6xHis-tagged (natural protein)
chain: DAFVSDQAEAKGFIEDSSLDLLLRNYYFNRDGKSGSGDRVDWTQGFLTTYESGFTQGTVGFGVDAFGYLGLKLDGTSDKTGTGNLPVMNDGKPRDDYSRAGGAVKVRISKTMLKWGEMQPTAPVFAAGGSRLFPQTATGFQLQSSEFEGLDLEAGHFTEGKEPTTVKSRGELYATYAGETAKSADFIGGRYAITDNLSASLYGAELEDIYRQYYLNSNYTIPLASDQSLGFDFNIYRTNDEGKAKAGDISNTTWSLAAAYTLDAHTFTLAYQKVHGDQPFDYIGFGRNGSGAGGDSIFLANSVQYSDFNGPGEKSWQARYDLNLASYGVPGLTFMVRYINGKDIDGTKMSDNNVGYKNYGYGEDGKHHETNLEAKYVVQSGPAKDLSFRIRQAWHRANADQGEGDQNEFRLIVDYPLSIL
notes: OprD (porin D, OccD1) of P. aeruginosa PAO1; open reading frame amplified from PAO1 genomic DNA and cloned into pET26(b)+; Labelled with 10 nm colloidal gold for TEM; also called porin D; OccD1; source: E. coli BL21(DE3), purified (Ni-NTA)
As for B3, binding in experiment [3] was characterised by a dissociation constant (Kd) of 22 nM.
